Results on 2 substances are retold here after patent US6127136A, “Detection of dioxin-like compounds by detection of transformed Ah receptor/ARNT complex” (Paracelsian, Inc., priority 1996, dated 2000).

The subject of data set [1] is Ah receptor/ARNT complex (TCDD-transformed, endogenous in cytosol). Nature of the data set: ELONA. Conditions: EC50 is for TCDD dose, not DNA; 30 C, Ah-ELISA on neutravidin plate, anti-ARNT detection.
A further data set deals with T1, transformed Ah receptor (Cavia porcellus, UniProt Q6J287).
T1 construct: TCDD-transformed receptor captured as heterodimer on DRE-oligonucleotide gel; recombinant ARNT added in some protocols
T1 sequence (Q6J287 10-846): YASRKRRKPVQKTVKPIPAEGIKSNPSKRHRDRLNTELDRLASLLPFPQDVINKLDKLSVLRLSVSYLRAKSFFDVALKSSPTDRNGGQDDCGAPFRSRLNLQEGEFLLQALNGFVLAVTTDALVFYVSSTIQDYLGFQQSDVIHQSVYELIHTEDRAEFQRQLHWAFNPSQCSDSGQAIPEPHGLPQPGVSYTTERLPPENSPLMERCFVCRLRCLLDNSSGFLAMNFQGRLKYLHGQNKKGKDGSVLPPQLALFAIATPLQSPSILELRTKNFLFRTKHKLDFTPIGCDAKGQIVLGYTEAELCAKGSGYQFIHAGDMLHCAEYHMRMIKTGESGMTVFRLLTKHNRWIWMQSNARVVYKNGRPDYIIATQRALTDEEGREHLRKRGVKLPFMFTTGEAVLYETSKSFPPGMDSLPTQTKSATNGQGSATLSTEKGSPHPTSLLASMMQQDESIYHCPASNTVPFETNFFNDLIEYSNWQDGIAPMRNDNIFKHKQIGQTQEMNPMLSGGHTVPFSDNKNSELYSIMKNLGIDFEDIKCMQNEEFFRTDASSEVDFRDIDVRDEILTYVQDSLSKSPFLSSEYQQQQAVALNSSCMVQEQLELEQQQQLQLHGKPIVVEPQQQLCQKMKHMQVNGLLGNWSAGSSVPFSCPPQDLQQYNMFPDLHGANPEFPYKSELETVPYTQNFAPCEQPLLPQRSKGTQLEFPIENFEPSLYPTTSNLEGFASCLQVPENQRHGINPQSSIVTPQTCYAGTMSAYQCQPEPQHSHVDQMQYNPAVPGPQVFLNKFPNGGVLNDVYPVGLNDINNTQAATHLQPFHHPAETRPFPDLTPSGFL
T1 sequence (Q0WXX3 1-790 partner): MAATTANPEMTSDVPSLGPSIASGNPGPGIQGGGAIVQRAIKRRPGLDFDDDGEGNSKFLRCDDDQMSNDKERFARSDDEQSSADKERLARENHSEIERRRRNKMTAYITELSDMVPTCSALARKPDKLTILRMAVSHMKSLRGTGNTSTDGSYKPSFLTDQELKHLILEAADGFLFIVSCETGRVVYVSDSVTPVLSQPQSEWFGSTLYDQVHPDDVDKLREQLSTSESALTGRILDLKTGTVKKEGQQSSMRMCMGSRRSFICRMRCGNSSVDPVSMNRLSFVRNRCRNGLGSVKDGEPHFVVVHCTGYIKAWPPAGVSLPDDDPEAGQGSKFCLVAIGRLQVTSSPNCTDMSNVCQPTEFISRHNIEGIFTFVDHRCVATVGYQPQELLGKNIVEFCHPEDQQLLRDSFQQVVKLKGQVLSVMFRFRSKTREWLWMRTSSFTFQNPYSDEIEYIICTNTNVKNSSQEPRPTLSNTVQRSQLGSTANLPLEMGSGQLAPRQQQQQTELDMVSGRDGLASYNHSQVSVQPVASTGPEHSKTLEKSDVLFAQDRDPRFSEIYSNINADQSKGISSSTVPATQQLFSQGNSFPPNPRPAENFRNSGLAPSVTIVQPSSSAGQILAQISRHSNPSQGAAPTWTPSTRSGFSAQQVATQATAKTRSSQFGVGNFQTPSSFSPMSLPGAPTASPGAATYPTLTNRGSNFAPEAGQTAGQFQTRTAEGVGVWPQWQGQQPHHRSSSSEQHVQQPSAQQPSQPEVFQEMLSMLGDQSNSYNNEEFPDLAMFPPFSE
Nature of the data set: mini-Ah immunoassay (DRE affinity gel, dot-blot spot density), with or without added recombinant ARNT. The format is biochemical, guinea pig (male Hartley, hepatic cytosol). The procedure:
(§1) Male Hartley guinea pigs weighing 300-350 g were obtained from Cornell Research Animal Resources, Cornell University, Ithaca, N.Y. Guinea pigs were anaesthetized and killed with carbon dioxide. Livers were perfused in situ with 100 mL ice-cold perfusion buffer, excised, trimmed of connective tissue, poorly perfused liver and gall bladder and weighed. The liver was minced and five mL of ice-cold HEDG per gram liver were added and the whole homogenized in a 50 mL homogenizer with teflon pestle using at 200 rpm for a total of seven strokes. Crude homogenate was centrifuged at 12,500 RPM in 50 mL tubes in a JA17 rotor in a Beckman J2-MI preparative centifuge at 4 degrees C for 20 minutes.
Procedure for the mini-Ah Immuno Assay
Preparation of Buffers: 155 uM TCDD stock was prepared by dissolving 1 mg 2,3,7,8-tetrachloro-dibenzo-p-dioxin (Cambridge Isotope Labs) in 20 mL DMSO (dimethylsulfoxide) overnight. 10 uM working dilution of TCDD was prepared by diluting 0.129 mL of the stock with 1.871 mL DMSO. 4M NaCl/HEDG was prepared by adding 116.88 g sodium chloride to 300 mL HEDG and adjusting the volume to 500 mL with HEDG. 0.3 M NaCl/HEDG was prepared by diluting 1.5 mL 4 M NaCl/HEDG to 20 mL with HEDG 0.6 M NaCl/HEDG was prepared by diluting 3.0 mL 4 M NaCl/HEDG to 20 mL with HEDG TBST was prepared by dissolving 1.18 g Tris-base, 6.35 g Tris-HCl, 8.76 g NaCL, and 2 mL Tween 20 in 800 mL water, adjusting volume to 1000 mL. Blocker was prepared by dissolving 10 g non-fat dry milk (Carnation) in 200 mL TBST. AP development buffer was prepared by dissolving 11 g Tris-base, 1.6 g Tris-HCl, 5.84 g Sodium Chloride, 10.2 g Magnesium Chloride hexahydrate, in 800 mL water and adjusting the volume to 1000 mL. BCIP stock was prepared by dissolving 100 mg BCIP (5-Bromo-4-Chloro-3-Indolyl Phosphate) in 2 mL N,N-Dimethylformamide, aliquoting into 66 uL portions, and freezing at -20 C until use. NBT stock was prepared by dissolving 250 mg NBT (Nitro Blue Tetrazolium) in 25 mL water, aliquoting into 660 uL proportions, and storing at -20 C until use. BCIP/NBT developer was prepared immediately before use by mixing one 66 uL aliquot of BCIP and one 660 uL aliquot of NBT in 20 mL AP development buffer.
(§2) For a typical mini-Ah immunoassay utilizing 12 samples, 5 mL of Transformed Ah Receptor Affinity Gel slurry described above was pipeted into a 50 mL conical tube. The slurry was washed with 40 mL HEDG and centifuged at 1000 g for 5 min, the supernatant withdrawn and discarded, the pellet washed with 40 mL HEDG, and centrifuged again. After the second centrifugation all but 5 mL of supernatant was withdrawn and the gel thus resuspended in the original volume. 10 mL guinea pig hepatic cytosol was thawed. The thawed cytosol was pooled and then divided into two 5 mL groups and treated with either 5 uL DMSO or 5 uL 10 uM TCDD in DMSO.
(§3) Assembly of transformation mixture:In the preferred embodiment of the mini-Ah immunoassay, each sample was composed of one 1.5 mL microfuge tube with the following sequential additions: 90 uL 4 M NaCl/HEDG, 400 uL Transformed Ah Receptor Affinity Gel slurry and 800 uL cytosol (treated with DMSO or TCDD as described above). The three components described above are the minimum components added at that step of the mini-Ah immunoassay. Any additional materials, such as ARNT, anti-ARNT and anti-Rabbit/alkaline phosphatase conjugate, were sometimes also added at this time as described in the specific examples. After assembly of the samples, the tubes were capped and the samples incubated at room temperature for 2 hours with gentle rocking to allow transformation of the Ah receptor to take place, interaction of transformed Ah receptor and ARNT, and binding of the transformed Ah receptor as a heteromer to the DRE oligonucleotide contained on the Transformed Ah Receptor Affinity Gel.
Isolation transformed Ah receptor: After the 2 hour incubation the mixtures were pipetted into the empty column barrels and allowed to drain. […]

Data set [2] concerns the target transformed Ah receptor/ARNT complex (Cavia porcellus, UniProt Q6J287). Nature of the data set: mini-Ah immunoassay with anti-ARNT detection of transformed Ah receptor/ARNT complex. It is filed as biochemical, guinea pig (male Hartley, hepatic cytosol). Details: AHR/ARNT heterodimer on DRE gel, anti-ARNT detection; in some samples recombinant baculovirus ARNT (Bradfield) added. Conditions: Example 4. The procedure:
as §1, §2, §3
Immunoprobing of transformed Ah receptor: The nitrocellulose membrane was then removed from the ELIFA apparatus, rinsed briefly with water, and placed in 20 mL blocker containing test antibody. All antibodies were incubated with the nitrocellulose membrane for one hour at room temperature. When the test antibody was anti-Ah receptor/alkaine phosphatase conjugate, 100 uL anti-Ah receptor/alkaline phosphatase conjugate (1:200), per 20 mL blocker was used. When anti-ARNT was added to the transformation mixture, anti-Rabbit/alkaline phosphatase conjugate (Sigma, St. Louis, Mo.) diluted 1:1000 (20 uL to 20 mL blocker) was used to probe the membrane. When ARNT, anti-ARNT and anti-Rabbit or anti-ARNT and anti-Rabbit was added to the transformation mixture, the Immunoprobing step was eliminated.
Immunodetection and densitometry: In all cases the nitrocellulose membrane was rinsed prior to immunodetection 3 times for 5 min each with 100 mL TBST, briefly washed in AP development buffer and developed in freshly made BCIP/NBT developer for 5 min, whereupon the color reaction was stopped by washing the membrane in water.
Quantitative data were obtained by scanning the dried membrane in a Microtek 600ZS scanner in gray scale, 300 dpi, 0% brightness, 0% contrast. Densitometric measurements of the dot-blots were made using ScanAnalysis software (Biosoft, Cambridge U.K.).
Cytosol and DRE affinity gel are prepared as described above. Cytosol is dosed with 1:1000 v/v DMSO (-) or 1:1000 v/v 10 uM 2,3,7,8-tetrachlorodibenzo-p-dioxin in DMSO (+).
Immunoprobing of transformed Ah receptor is as described above with the following probes. […]

Chain of transformed Ah receptor/ARNT complex (Q6J287 10-846): as the sequence (Q6J287 10-846) above
Chain of transformed Ah receptor/ARNT complex (Q0WXX3 1-790 partner): as the sequence (Q0WXX3 1-790 partner) above
Chain of transformed Ah receptor/ARNT complex (P27540 whole entry partner): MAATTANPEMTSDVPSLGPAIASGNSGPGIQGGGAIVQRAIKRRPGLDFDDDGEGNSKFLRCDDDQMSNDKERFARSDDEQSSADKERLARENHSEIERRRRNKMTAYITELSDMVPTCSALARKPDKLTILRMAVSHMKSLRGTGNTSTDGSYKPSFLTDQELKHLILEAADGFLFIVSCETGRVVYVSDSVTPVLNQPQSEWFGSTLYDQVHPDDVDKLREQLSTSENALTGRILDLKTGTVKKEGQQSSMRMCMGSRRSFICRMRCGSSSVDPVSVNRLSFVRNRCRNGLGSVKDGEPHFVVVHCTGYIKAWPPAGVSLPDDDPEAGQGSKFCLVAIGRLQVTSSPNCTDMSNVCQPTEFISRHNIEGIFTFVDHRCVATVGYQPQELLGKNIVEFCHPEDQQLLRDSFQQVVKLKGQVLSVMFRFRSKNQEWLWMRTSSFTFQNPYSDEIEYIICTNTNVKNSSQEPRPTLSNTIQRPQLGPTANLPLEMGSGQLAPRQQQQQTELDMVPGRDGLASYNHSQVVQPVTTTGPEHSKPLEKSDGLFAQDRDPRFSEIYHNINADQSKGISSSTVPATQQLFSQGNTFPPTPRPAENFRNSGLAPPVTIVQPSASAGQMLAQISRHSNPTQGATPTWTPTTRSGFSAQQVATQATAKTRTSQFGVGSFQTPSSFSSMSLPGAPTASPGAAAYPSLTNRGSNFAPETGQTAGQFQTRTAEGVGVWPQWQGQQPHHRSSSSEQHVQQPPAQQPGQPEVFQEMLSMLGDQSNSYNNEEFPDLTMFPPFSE

B-DRE (DRE-D/B-ERD) had an EC50 in data set [1] of 0.5 nM.

Regarding “ARNT: Purified recombinant ARNT (Ah Receptor Nuclear Translocator)”, the “effect of ARNT amount on response” value with transformed Ah receptor (0.5 ug vs 2 ug ARNT, Example 2) is 0.5 ug arnt gave less response than 2 ug ARNT. In the data set with transformed Ah receptor (ARNT 2 ug/assay, Example 1), the “effect of ARNT addition on non-TCDD dependent transformation of the Ah receptor” value is listed as “did not increase non-TCDD dependent transformation of the Ah receptor” and the “increase of TCDD-dependent response by ARNT addition” value stood at 354%. Moreover, the “effect of ARNT addition on response” value in data set [2] is on record as “improves response”.
